This data set is described as follows: self-splicing fitness, log relative to wild type (ln ratio); higher = more splicing; Tetrahymena group I intron in knt gene, E. coli kanamycin selection, DiMSum; sequences stand for … in CUCUCU…GGAGGGAAAAGUUAUCAGGCAUGCACCUGGUAGCUAGUCUUUAAACCAAUAGAUUGCAUCGGUUUAAAAGGCAAGACCGUCAAAUUGCGGGAAAGGGGUCAACAGCCGUUCAGUACCAAGUCUCAGGGGAAACUUUGAGAUGGCCUUGCAAAGGGUAUGGUAAUAAGCUGACGGACAUGGUCCUAACCACGCAGCCAAGUCCUAAGUCAACAGAUCUUCUGUUGAUAUGGAUGCAGUUCACAGACUAAAUGUCGGUCGGGGAAGAUGUAUUCUUCUCAUAAGAUAUAGUCGGACCUCUCCUUAAUGGGAGCUAGCGGAUGAAGUGAUGCAACACUGGAGCCGCUGGGAACUAAUUUGUAUGCGAAAGUAUAUUGAUUAGUUUUGGAGUACUCGUGGUCG
Summed up:
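Pooled colonies went to amplicon sequencing on an Illumina HiSeq 2500 after six replicate transformations. The plates were LB agar with 100 μg/mL carbenicillin, 50 μM IPTG and 0.2% rhamnose, with or without 25 μg/mL kanamycin, incubated overnight at 37°C or 30°C. The E. coli BL21(DE3) library had all eight P1ex-region intron nucleotides randomised, the intron placed in the knt kanamycin-resistance gene on pET-22b(+). DiMSum fitness is the error-weighted combination of replicate fold changes, kanamycin against none, normalised to wild type.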

± gives the uncertainty stated by the source.

Regarding ACUCAGCAAUAUUACGAAGC, the “self-splicing fitness (ln)” value (30 °C) is -1.99 ± 0.19 and the “self-splicing fitness (ln)” value (37 °C) is -1.46 ± 0.16.

For the sequence ACUCAGCAAUAUUACGACGA, the “self-splicing fitness (ln)” value (30 °C) was -0.9 ± 0.087 and the “self-splicing fitness (ln)” value (37 °C) was -0.164 ± 0.11.

For ACUCAGCAAUAUUACGAGCA, the “self-splicing fitness (ln)” value is, setting by setting: (30 °C) -0.632 ± 0.068; (37 °C) 0.302 ± 0.092.

For ACUCAGCAAUAUUACGAUCA, the “self-splicing fitness (ln)” value is -0.712 ± 0.13 (30 °C) and -0.359 ± 0.12 (37 °C).

With ACUCAGCAAUAUUACGAUCG, the “self-splicing fitness (ln)” value by setting is: (30 °C) -1.54 ± 0.074; (37 °C) -0.221 ± 0.12.

As for ACUCAGCAAUAUUACGAUCU, the “self-splicing fitness (ln)” value runs as follows: (30 °C) -0.0985 ± 0.064; (37 °C) 0.407 ± 0.08.

On to ACUCAGCAAUAUUACGCUUC, for which the “self-splicing fitness (ln)” value by setting is: (30 °C) -2.3 ± 0.094; (37 °C) -1.48 ± 0.12.

ACUCAGCAAUAUUACGGAUA: the “self-splicing fitness (ln)” value reads like this: (30 °C) -0.808 ± 0.15; (37 °C) -0.834 ± 0.16.

With ACUCAGCAAUAUUACGGUUA, the “self-splicing fitness (ln)” value was -0.995 ± 0.08 (30 °C) and -0.513 ± 0.076 (37 °C).

As for ACUCAGCAAUAUUACGUAUC, the “self-splicing fitness (ln)” value by setting is: (30 °C) -2.28 ± 0.14; (37 °C) -1.66 ± 0.14.

As for ACUCAGCAAUAUUACGUAUU, the “self-splicing fitness (ln)” value was -2.01 ± 0.081 (30 °C) and -0.892 ± 0.11 (37 °C).

Regarding ACUCAGCAAUAUUACGUCGG, the “self-splicing fitness (ln)” value was -1.74 ± 0.07 (30 °C) and -1.25 ± 0.084 (37 °C).

For the sequence ACUCAGCAAUAUUACGUCUU, the “self-splicing fitness (ln)” value is -0.765 ± 0.046 (30 °C) and 0.0108 ± 0.062 (37 °C).

Take ACUCAGCAAUAUUACGUUAC: the “self-splicing fitness (ln)” value (30 °C) was -4.33 ± 0.26 and the “self-splicing fitness (ln)” value (37 °C) is -2.31 ± 0.18.

On to ACUCAGCAAUAUUACGUUAU, for which the “self-splicing fitness (ln)” value was -2.29 ± 0.073 (30 °C) and -1.27 ± 0.086 (37 °C).

On to ACUCAGCAAUAUUACGUUGG, for which the “self-splicing fitness (ln)” value by setting is: (30 °C) -3.63 ± 0.15; (37 °C) -1.49 ± 0.096.

Turning to ACUGAGCAAUAUUACGCAGG, the “self-splicing fitness (ln)” value by setting is: (30 °C) -3.15 ± 0.23; (37 °C) -1.14 ± 0.13.

Consider ACUGAGCAAUAUUACGCGAU, for which the “self-splicing fitness (ln)” value runs as follows: (30 °C) -3.36 ± 0.25; (37 °C) -1.71 ± 0.14.

Regarding ACUGAGCAAUAUUACGCGGU, the “self-splicing fitness (ln)” value (30 °C) was -2.46 ± 0.31.

ACUGAGCAAUAUUACGGAAA: the “self-splicing fitness (ln)” value is, setting by setting: (30 °C) -2.92 ± 0.27; (37 °C) -2.61 ± 0.28.

Take ACUGAGCAAUAUUACGGCAA: the “self-splicing fitness (ln)” value (30 °C) is -2.13 ± 0.14 and the “self-splicing fitness (ln)” value (37 °C) is -2.33 ± 0.21.

In the case of ACUGAGCAAUAUUACGGGGG, the “self-splicing fitness (ln)” value (30 °C) is -3.19 ± 0.16 and the “self-splicing fitness (ln)” value (37 °C) was -2.17 ± 0.17.

In the case of ACUGAGCAAUAUUACGGUCU, the “self-splicing fitness (ln)” value (30 °C) was -2.46 ± 0.12 and the “self-splicing fitness (ln)” value (37 °C) is -1.57 ± 0.16.

On to ACUGAGCAAUAUUACGGUUG, for which the “self-splicing fitness (ln)” value runs as follows: (30 °C) -2.76 ± 0.14; (37 °C) -1.73 ± 0.15.

In the case of ACUGAGCAAUAUUACGUAUU, the “self-splicing fitness (ln)” value (30 °C) is -3.29 ± 0.12 and the “self-splicing fitness (ln)” value (37 °C) was -1.48 ± 0.097.

Consider ACUGAGCAAUAUUACGUCUG, for which the “self-splicing fitness (ln)” value was -3.59 ± 0.28 (30 °C) and -2.43 ± 0.2 (37 °C).

ACUGAGCAAUAUUACGUGAG: the “self-splicing fitness (ln)” value by setting is: (30 °C) -1.82 ± 0.063; (37 °C) -1.36 ± 0.085.

Consider ACUGAGCAAUAUUACGUGCU, for which the “self-splicing fitness (ln)” value is, setting by setting: (30 °C) -3.84 ± 0.41; (37 °C) -2.28 ± 0.27.

As to ACUGAGCAAUAUUACGUUCU, the “self-splicing fitness (ln)” value runs as follows: (30 °C) -1.77 ± 0.14; (37 °C) -1.48 ± 0.12.

As to ACUUAGCAAUAUUACGAAAC, the “self-splicing fitness (ln)” value by setting is: (30 °C) -3.64 ± 0.32; (37 °C) -1.65 ± 0.24.

In the case of ACUUAGCAAUAUUACGAAGA, the “self-splicing fitness (ln)” value by setting is: (30 °C) -1.69 ± 0.12; (37 °C) -1.24 ± 0.14.

On to ACUUAGCAAUAUUACGACAA, for which the “self-splicing fitness (ln)” value (30 °C) was -1.55 ± 0.17 and the “self-splicing fitness (ln)” value (37 °C) was -0.888 ± 0.28.

Regarding ACUUAGCAAUAUUACGAGGG, the “self-splicing fitness (ln)” value is, setting by setting: (30 °C) -3.07 ± 0.24; (37 °C) -2.65 ± 0.23.

For ACUUAGCAAUAUUACGAGGU, the “self-splicing fitness (ln)” value was -3.47 ± 0.22 (30 °C) and -1.96 ± 0.21 (37 °C).

Regarding ACUUAGCAAUAUUACGAUUU, the “self-splicing fitness (ln)” value is -0.382 ± 0.07 (30 °C) and 0.252 ± 0.092 (37 °C).

In the case of ACUUAGCAAUAUUACGCAGG, the “self-splicing fitness (ln)” value is -2.19 ± 0.13 (30 °C) and -1.79 ± 0.15 (37 °C).

Take ACUUAGCAAUAUUACGCAUG: the “self-splicing fitness (ln)” value by setting is: (30 °C) -1.76 ± 0.085; (37 °C) -0.581 ± 0.11.

(Values after the supplement of paper PMC7877785.)
